Data: patent US7427671 (US Dept. of Health and Human Services, dated 2008)

Target: T1, human type α platelet derived growth factor receptor (T11 gene product) (human, UniProt P16234 24-1089)
T1 construct: In western blots and immunoprecipitations it came from cell lysates; also called type α PDGF-R; α PDGFR
Experiment: Scatchard analysis of PDGF-BB binding to 32D-αR transfectants

T1 sequence (P16234 24-1089): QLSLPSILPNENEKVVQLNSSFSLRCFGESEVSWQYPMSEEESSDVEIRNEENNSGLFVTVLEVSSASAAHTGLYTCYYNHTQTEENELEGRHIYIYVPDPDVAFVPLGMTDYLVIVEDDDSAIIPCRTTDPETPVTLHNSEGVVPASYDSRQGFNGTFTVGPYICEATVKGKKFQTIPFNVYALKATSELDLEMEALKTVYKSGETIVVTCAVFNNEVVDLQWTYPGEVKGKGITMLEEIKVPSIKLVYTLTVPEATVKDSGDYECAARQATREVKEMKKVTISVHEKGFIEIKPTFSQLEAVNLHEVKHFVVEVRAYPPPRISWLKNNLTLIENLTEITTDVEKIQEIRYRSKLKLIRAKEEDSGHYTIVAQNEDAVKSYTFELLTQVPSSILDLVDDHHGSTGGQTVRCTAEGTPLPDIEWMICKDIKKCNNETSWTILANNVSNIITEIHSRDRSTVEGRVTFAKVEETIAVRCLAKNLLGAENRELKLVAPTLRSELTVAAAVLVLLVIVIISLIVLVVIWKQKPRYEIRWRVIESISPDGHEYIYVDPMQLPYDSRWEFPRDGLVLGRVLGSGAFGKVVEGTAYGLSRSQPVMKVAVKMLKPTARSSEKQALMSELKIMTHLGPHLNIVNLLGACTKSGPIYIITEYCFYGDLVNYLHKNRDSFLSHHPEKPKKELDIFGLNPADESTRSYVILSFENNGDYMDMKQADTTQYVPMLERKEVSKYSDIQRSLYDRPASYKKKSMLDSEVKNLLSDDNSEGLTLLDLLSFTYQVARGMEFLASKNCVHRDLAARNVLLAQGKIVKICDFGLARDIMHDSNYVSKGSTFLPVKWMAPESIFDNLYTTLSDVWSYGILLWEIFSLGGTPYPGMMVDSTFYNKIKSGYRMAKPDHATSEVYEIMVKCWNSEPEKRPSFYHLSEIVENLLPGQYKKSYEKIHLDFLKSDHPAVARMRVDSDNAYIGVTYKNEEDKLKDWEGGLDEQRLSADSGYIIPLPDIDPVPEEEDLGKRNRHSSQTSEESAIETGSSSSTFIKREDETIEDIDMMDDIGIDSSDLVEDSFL

B1: recombinant PDGF-BB (ligand, UniProt P01127 82-190, looked up)
chain: SLGSLTIAEPAMIAECKTRTEVFEISRRLIDRTNANFLVWPPCVEVQRCSGCCNNRNVQCRPTQVQLRPVQVRKIEIVRKKPIFKKATVTLEDHLACKCETVAAARPVT
notes: Homodimer of B chains; also called BB homodimer
- Kd: 0.4 nM
